The source of these data is US20260078420A1.

Substrate in the data set: OC[C@H]1O[C@@H](O[C@H]2C(O)O[C@H](CO)[C@@H](O)[C@@H]2O)[C@H](O)[C@@H](O)[C@@H]1O
The data set is described as follows: purified protein, by the assay type. The following applies: other: sophorose substrate; Gawronski phosphate release assay; 37.0 °C.

B1: Rhizobium tropici β-1,2-glucan phosphorylase (RtSOGP, B6), wild type, SEQ ID NO: 11 (Martinezella tropici) (protein)
chain: MSSGTNRSFQTPRREELGLITLSNTAGLSASALPNGTLFSIDFADQQGGVMINQVLGSPVYGGIGRLYLRIGGAKPATAEIVGPKAAVQFGHGKSGFSWSGETAGVKHTISLRLHPNKTAWFWQVSLENSSNATLSADLVLVQDVGLGDRGFLMNSEAYASQYIDHHIADHSAFGPVIMVRQNLKQGGGRNPWLAQGCLEGAAAYATDAIQLLVPSKGNDGVMVPDFGTSLPSARRQHEVACPTIQSKPLALAAGAKATTTFFGLFIADHPAASSDADLAHLDGLPALQSELAAETISAGQPVRSLLQDAPLAESDDLDQAALDALYPRRMLEEHADGKLLSFFVPDGPHNRHIVLREKERLVARRHGAIVRSGQNMLLDDQTLAATCWMQGIFAAQLTIGNTSFHKLFSVSRDPYNLTRSSGLRILVDLGDGWRLLGVPAAFEMGLSDTRWIYRLPGRTIIVSAIASGDDPAMQWSVSVEGAACRFLVFGQIVLGERDYEAVANIAVDTAGKRISFQPQPSWLWDRYPKAGYHLVTSTPDAFEAIGGDELLYSDSTARNGPFIALKSHPTKALRFAVTGSMTDAQAAEALAARYTTGVESEEMLAPARRFWSHVTRGARIEGDGRDVAAQAVMLPWIAHDAIVHLSVPHGLEQYTGAAWGTRDVCQGPIEFLLAYEHDEEVRQILLTLFSEQYRDRGDWPQWFMLEPYANIRAGEAHGDIVVWPLKALCDYIEATGDIAFLAKTVPWRADDTMQLTSEHATISDHIEKLLDTVRSRFVPGTSLIRYGEGDWNDSLQPADPHLRDWMVSSWTVSLLYEQLVRYANILTLANRNDEAQSLQATAVAMRADFNRLLMRDGIVAGYGVFDPSHDGVELLLHPEDTRTGLHYSLIAMTQPMIGGLFAPEQRHAHMKIIRANLLFPDGVRLMEKPATYSGGPEKLFRRAESSSFFGREIGLMYVHAHLRYCEALALDDDAEAVWAALALANPIAVSGRVEHASLRQRNTYFSSSDAAFEDRYQASAEWTRVKAGDIAVDGGWRIYSSGPGLYTKSLIGNVFGFKRQFGQRIRKPLLPASIGACEVKLDFKA
For orientation: Km means the concentration of substrate that gives half-maximal velocity. For orientation: Vmax means the rate approached at saturating substrate. Usually kcat stands for the maximal rate divided by the concentration of active sites. As a reminder, the kcat/Km is the turnover number divided by the Michaelis constant. As for B1, the Km is 70 µM, the Vmax stood at 24 µmol/min/mg, the turnover number (kcat) is 50 s⁻¹ and the kcat/Km amounted to 717000 M⁻¹ s⁻¹.
